{
  "source": "patent US20240026407A1",
  "about": "“MODIFICATION OF SAPONINS” (GLAXOSMITHKLINE BIOLOGICALS SA, priority 2020, published 2024)",
  "format_in_all_cases": "biochemical, Quillaja saponaria",
  "key": {"[1]": {"assay": "Experiment 6-1: screening of rhamnosidases for derhamnosylation of saponins in treated bark extract (2%), QS-17 2296 to QS-18 2150 (PAR %)", "conditions": "TBE 2%, pH 7.5, 30 degC, 18 h; TIC peak area ratio percent of rhamnosylated starting saponin to derhamnosylated product, LCMS/MS; negative controls 4.876, 5.225"}, "[2]": {"assay": "Experiment 6-1: screening of rhamnosidases for derhamnosylation of saponins in treated bark extract (2%), QS-17 2310 to QS-18 2164 (PAR %)", "conditions": "TBE 2%, pH 7.5, 30 degC, 18 h; TIC peak area ratio percent, LCMS/MS; negative controls 3.061, 2.429"}, "[3]": {"assay": "Experiment 6-1: screening of rhamnosidases for derhamnosylation of saponins in treated bark extract (2%), desglucosyl-QS-17 2134 to QS-21 1988 (PAR %)", "conditions": "TBE 2%, pH 7.5, 30 degC, 18 h; TIC peak area ratio percent, LCMS/MS; negative controls 2.719, 2.158"}, "[4]": {"assay": "Experiment 6-3: screening of rhamnosidases for derhamnosylation of saponins in crude bark extract (80%), relative % of Left, Middle and Right Peak by UV HPLC", "conditions": "CBE 80%, pH 7.4, 30 degC, 19.5 h; for Left Peak: mainly QS-17 family, negative control 27%; for Middle Peak: mainly QS-18 and desglucosyl-QS-17 family, negative control 48%; for Right Peak: mainly QS-21 family, negative control 26%", "procedure": "Selected variants were expressed and lysed as in the method of experiment 6-1.\nCrude bark extract (CBE) solution was adjusted to pH 7.4 by addition of NaOH (2M). 20 uL clarified lysate was transferred into fresh 96 well PCR plates. 80 uL CBE solution (pH 7.4) was added to each well of lysate to a final concentration of 80%. Plates were incubated at 30 degC with shaking for 19.5 h.\nQuenched with 100 uL MeCN+2% AcOH and shaken at room temperature for 10 mins prior to centrifugation (10 min, 4 degC) to remove particulates. Samples were analysed by UV HPLC using method of Experiment 4-4.\nThree key peaks of interest are apparent using this chromatography: Left Peak (retention time approximately 2.30-2.35 min) comprising mainly QS-17 family components; Middle Peak (retention time approximately 2.37-2.42 min) comprising mainly QS-18 family components and desglucosyl-QS-17 family components; and Right Peak (retention time approximately 2.44-2.50 min) comprising mainly QS-21 family components. Peak identity was supported by MS/MS.\nEnzyme mediated hydrolysis of the alpha-O-rhamnosylation at the C2 position of the arabinofuranose moiety of QS-17 family components leads to a decrease in Left Peak and an increase in Middle Peak due to formation of QS-18 family components. Enzyme mediated hydrolysis of the alpha-O-rhamnosylation at the C2 position of the arabinofuranose moiety of desglucosyl-QS-17 family components leads to a decrease in Middle Peak and an increase in Right Peak due to formation of QS-21 family components.\nThe relative percentage of each peak was determined. A decrease in Left Peak and a concomitant increase in Middle Peak and Right Peak is observed for enzymes active under these conditions."}, "[5]": {"assay": "Experiment 6-1: specificity of rhamnosidases towards other rhamnose residues (C3 saccharide rhamnose, C28 saccharide rhamnose)", "conditions": "TBE 2%, pH 7.5, 30 degC, 18 h; LCMS/MS; negative controls 0.18, 0.17"}, "[6]": {"assay": "Experiment 6-2: screening of rhamnosidases for derhamnosylation of saponins in treated bark extract (25%), relative % of Left, Middle and Right Peak by UV HPLC", "conditions": "TBE 25%, pH 7.4, 19.5 h; for Left Peak: mainly QS-17 family, negative control 24%; for Middle Peak: mainly QS-18 and desglucosyl-QS-17 family, negative control 50%; for Right Peak: mainly QS-21 family, negative control 26%"}},
  "data": [
    {"molecule": "989 (protein, listed as Rhodothermus marinus) MVLLFLGGAKEGAAQSNQALQVASLRTEYLVNPIGIEVRQPRLSWQLQSDRRDVRQVAYQIQVATSREALARGRDLVWDSGRVESDQSVFVPYGGPALQRRQRYYWRVRVWDNHGRSSAWSEPAFWEMGLLSPDEWRAQWITYNWEEDTSQPQPAPMLRRTFRVEGRVRRARLYITSLGLYEAHLNGRRVGDQLFTPGWTSYHHRLQYQTYDVTDLLRPGENALGVILGDGWYRGYLTWSVRRNVYGDRLALLAQLEITYEDGRTQVVTSDPDWKATTGPIRMSDIYMGEIYDARLEKEGWTEPGYDDSDWRGVRVLEHPKDILIAPIGPPVRRIQEIRPVAILYTPAGDTVVDMGQNMVGWVRLRVRGPAGTVVTLRHAEVLDKHGNFYTENLRRARQTDQYILKGEGEEVFEPHFTFHGFRYVAVSGYPGELTPEAITGIVIHSAFEPTGTWVSSDSLLNRLQLNIQWGMKGNFLDVPTDCPQRDERLGWTGDAQVFARTAMFNGLVGGFFTKWLGDVAADQSPEGAVPHVVPNVLPSFAGRFPGGATGWADAAVVIPWTMYQVYGDRRILEVQYPSMKAWVEYMRREAGDDLIWDTGFHFGDWLAFVPEENVRRAYPGATTGRDFLATAYFAYSTRLLAQAAEVIGKTDEARHYRQLYEAIREAFNREFVTPNGRVAQATQTAYTLAIQFDLLPEHLRAEAGRRLAEDVRAHNMHLTTGFLGTPQLLHALSNTGQLDVAYTLLRQTTYPSWLYQVKMGATTMWERWDSIKPDSTFQDPSMNSFNHYAYGSVGDWMYRVVAGIDTETPGYQRLRIAPQPGGGLKWVQARYHSLYGEVASSWELVDPQTFVLEVTIPPNTTATVRLPGAQLASVQEGRQPVQSAAGVHRAYQDGADVVVEVGSGTYRFTYSPSAELVRRIQTQPEVGQPVTMSF", "values": [
      {"measurement": "QS-17 (PAR %)", "setting": "[1]", "value": 0.516, "unit": "%"},
      {"measurement": "Peak57 (PAR %)", "setting": "[2]", "value": 0.305, "unit": "%"},
      {"measurement": "Peak75 (PAR %)", "setting": "[3]", "value": 0.478, "unit": "%"},
      {"measurement": "Left Peak", "setting": "[4]", "value": 29, "unit": "%"},
      {"measurement": "Middle Peak", "setting": "[4]", "value": 43, "unit": "%"},
      {"measurement": "Right Peak", "setting": "[4]", "value": 27, "unit": "%"},
      {"measurement": "ratio PP/QS-21", "setting": "[5]", "value": 0.18},
      {"measurement": "Left Peak", "setting": "[6]", "value": 19, "unit": "%"},
      {"measurement": "Middle Peak", "setting": "[6]", "value": 54, "unit": "%"},
      {"measurement": "Right Peak", "setting": "[6]", "value": 26, "unit": "%"}
    ]},
    {"molecule": "1041 (protein, Frankia inefficax) MRAIRLRTEYLTEPLGLGITAPRLYWNADGGLRQTAYQVVARRGGETVWDTGKVASSRMTHVRYEGVPLGSRDRVDWSVVLWDEAGAAGPPAESWFELGLLDPADWTAEWITGDYTPEPDVRYPVDHFRRDFRVREPVLAARLYITAAGVYEAVLNGEPVSEARLGPGATDYRHRLHYQTFDVTSLLAADNVLEVRLADGWYRGSLGAFGATHVFGRETRLLAQLELTYPDGSTETVGSDERFRWSDDGPVRFADLQDGEVYDARLAPSYSGHARITTETMIPTAADNVPVTEHERFPARLLTTPSGARVLDFGQNLAGFVAFTVSGRAGQRLTLRLGEILDGAGEFTQRNFQLRKPVHEFGRDVEILLLTGQESEIKGELQPTPKQEVVFTASGGTDHYVTRFAVFGFRYALVETDLDIDPADFEAIAVYSAMEQTGTCVTSHEGVNRFLENTRWSMKGNFLDVPTDCPTRERLGWTGDAQVFFDTAAYLMDVGAFFRKWLRDVRDGQLADGKLSAVIPYNGTSMLYDTTGGSVGWADAVVLIPYRYWKRYGDESILRDCYDAMRRYAMFMITNAGPLDPEAAADNPHARYLYEKGVHLGDWLEAAEFRDPSPGRTPMPEEATAYLHYTMTHLAEIATVLGETADADLFAEYAQGAKAAYTHQFLRDGTLDTDRQAKLVRPLALGLADGDVKRRLEDRLVQAVKNRDFHVNTGFLSTPFVLPTLTAAGHPEIAYRMLDNEDAPSWLAEVKAGATTVWEDWEGKESRNHYSPGAVCQWLFDTVAGLRVTGENHFTIAPVPGGSLTSAQARYTSVYGTVASSWTRTGTDLHLTVTLPPNTTADVRLPNGTEHVVGPGTHEYTA", "values": [
      {"measurement": "QS-17 (PAR %)", "setting": "[1]", "value": 0.507, "unit": "%"},
      {"measurement": "Peak57 (PAR %)", "setting": "[2]", "value": 0.000, "unit": "%"},
      {"measurement": "Peak75 (PAR %)", "setting": "[3]", "value": 0.000, "unit": "%"},
      {"measurement": "Left Peak", "setting": "[4]", "value": 25, "unit": "%"},
      {"measurement": "Middle Peak", "setting": "[4]", "value": 48, "unit": "%"},
      {"measurement": "Right Peak", "setting": "[4]", "value": 27, "unit": "%"},
      {"measurement": "ratio PP/QS-21", "setting": "[5]", "value": 0.16},
      {"measurement": "Left Peak", "setting": "[6]", "value": 15, "unit": "%"},
      {"measurement": "Middle Peak", "setting": "[6]", "value": 55, "unit": "%"},
      {"measurement": "Right Peak", "setting": "[6]", "value": 30, "unit": "%"}
    ]},
    {"molecule": "1039 (protein, listed as Lactobacillus acidophilus) MKITNILVNQMEHPLGFDLSNLRITFELTEMENIIGNVYKNISVGKVESEQPIYFEPDELYENNAFKINMELEPRTKYWVKIGVRNDNEVTSSNTWFETGKMDEKFYGKWITNKKDVENTLFKKDFELANKQIKSARLYSTTLGVYEVDLNGVKVGNEFLAPGFTNYDKIVQLQTYDVTKLVTKNSNNELVFSVGDGWYKGNLGFDGGQTNIYGDKKSILAELHVTYTDNSEQVISTDSSWLTTEGKIIKSSIYYGEDIDDTKDILDWSSVVILNKSTSIVRDRLSLPIMKKEVLKVKEIIHTPKNEIVLDFGQNHAGWPVFINRLARGKKITLQMGEILQDGNFYNKNLRLARAAFTYISDGEEKLIRPHFTYFGFRYVKISGVTDVNKDDFESWVLYSDLKQTGFIKTNNDKVNRLFKNVIWGQKSNFMDVPTDCPQRDERLGWTGDAEIFAPTASFNMNTYEFYKKYAKDMLVEQEDNKGMLPIIVPSLKQKSTGMAIWSDAATIIPWVTYRFFDDLGVLKQNYSQMKNWVDWITQNTKTKYLWIGQMQLGDWLSLDNGANPQGKTNEDYIASIYYFVSASIVSKAARLLHYDMESDYYENLARNIKTNILNEFVTEKGRIAIDTQTALVLALHFGLVHDYQKSQVVADLVKKVKDDNKHLQTGFVGTPFLLSVLSNNNQHHLAMDIFMQEDCPSWLYEVNMGATTIWERWNSVLPDGKMNPEGMNSLNHYSFGAVMMWMYQCVVGLNQFDAGFKEIYFAPKFDCRLKDIYSEFDSTYGKIKVEYHLETNEKHLIRMNLVIPFGVKMKVKLPRSAKYLINGKEKIGIVKLEYGKYDISYIPTKSYLNYYDLNSKLVDILDNNDLVKRIDQIDEKILQKVKRMGNTRSIFINKKIDELLDFEEISQEEKNQLVDILHKTIFIKLNLF", "values": [
      {"measurement": "QS-17 (PAR %)", "setting": "[1]", "value": 0.492, "unit": "%"},
      {"measurement": "Peak57 (PAR %)", "setting": "[2]", "value": 0.000, "unit": "%"},
      {"measurement": "Peak75 (PAR %)", "setting": "[3]", "value": 0.683, "unit": "%"},
      {"measurement": "Left Peak", "setting": "[4]", "value": 25, "unit": "%"},
      {"measurement": "Middle Peak", "setting": "[4]", "value": 48, "unit": "%"},
      {"measurement": "Right Peak", "setting": "[4]", "value": 27, "unit": "%"},
      {"measurement": "ratio PP/QS-21", "setting": "[5]", "value": 0.18},
      {"measurement": "Left Peak", "setting": "[6]", "value": 16, "unit": "%"},
      {"measurement": "Middle Peak", "setting": "[6]", "value": 57, "unit": "%"},
      {"measurement": "Right Peak", "setting": "[6]", "value": 27, "unit": "%"}
    ]}
  ]
}
